# Measured values published in US20240368668A1, “SUBSTRATES AND BIOMARKERS OF ADAMTS7” (The Broad Institute, Inc., priority 2021, published 2024).
# Molecular target: T1, mouse ADAMTS7 (Mus musculus, UniProt Q68SA9)
# T1 construct: Full-length mouse Adamts7 1-1857 (Uniprot Q68SA9, WT or E373Q catalytic mutant); expressed in transfected cells; host or cells: Human Coronary Artery Smooth Muscle Cells (HCA-SMC, Lonza), adenovirus 50 MOI
# T1 sequence (Q68SA9 221-1657): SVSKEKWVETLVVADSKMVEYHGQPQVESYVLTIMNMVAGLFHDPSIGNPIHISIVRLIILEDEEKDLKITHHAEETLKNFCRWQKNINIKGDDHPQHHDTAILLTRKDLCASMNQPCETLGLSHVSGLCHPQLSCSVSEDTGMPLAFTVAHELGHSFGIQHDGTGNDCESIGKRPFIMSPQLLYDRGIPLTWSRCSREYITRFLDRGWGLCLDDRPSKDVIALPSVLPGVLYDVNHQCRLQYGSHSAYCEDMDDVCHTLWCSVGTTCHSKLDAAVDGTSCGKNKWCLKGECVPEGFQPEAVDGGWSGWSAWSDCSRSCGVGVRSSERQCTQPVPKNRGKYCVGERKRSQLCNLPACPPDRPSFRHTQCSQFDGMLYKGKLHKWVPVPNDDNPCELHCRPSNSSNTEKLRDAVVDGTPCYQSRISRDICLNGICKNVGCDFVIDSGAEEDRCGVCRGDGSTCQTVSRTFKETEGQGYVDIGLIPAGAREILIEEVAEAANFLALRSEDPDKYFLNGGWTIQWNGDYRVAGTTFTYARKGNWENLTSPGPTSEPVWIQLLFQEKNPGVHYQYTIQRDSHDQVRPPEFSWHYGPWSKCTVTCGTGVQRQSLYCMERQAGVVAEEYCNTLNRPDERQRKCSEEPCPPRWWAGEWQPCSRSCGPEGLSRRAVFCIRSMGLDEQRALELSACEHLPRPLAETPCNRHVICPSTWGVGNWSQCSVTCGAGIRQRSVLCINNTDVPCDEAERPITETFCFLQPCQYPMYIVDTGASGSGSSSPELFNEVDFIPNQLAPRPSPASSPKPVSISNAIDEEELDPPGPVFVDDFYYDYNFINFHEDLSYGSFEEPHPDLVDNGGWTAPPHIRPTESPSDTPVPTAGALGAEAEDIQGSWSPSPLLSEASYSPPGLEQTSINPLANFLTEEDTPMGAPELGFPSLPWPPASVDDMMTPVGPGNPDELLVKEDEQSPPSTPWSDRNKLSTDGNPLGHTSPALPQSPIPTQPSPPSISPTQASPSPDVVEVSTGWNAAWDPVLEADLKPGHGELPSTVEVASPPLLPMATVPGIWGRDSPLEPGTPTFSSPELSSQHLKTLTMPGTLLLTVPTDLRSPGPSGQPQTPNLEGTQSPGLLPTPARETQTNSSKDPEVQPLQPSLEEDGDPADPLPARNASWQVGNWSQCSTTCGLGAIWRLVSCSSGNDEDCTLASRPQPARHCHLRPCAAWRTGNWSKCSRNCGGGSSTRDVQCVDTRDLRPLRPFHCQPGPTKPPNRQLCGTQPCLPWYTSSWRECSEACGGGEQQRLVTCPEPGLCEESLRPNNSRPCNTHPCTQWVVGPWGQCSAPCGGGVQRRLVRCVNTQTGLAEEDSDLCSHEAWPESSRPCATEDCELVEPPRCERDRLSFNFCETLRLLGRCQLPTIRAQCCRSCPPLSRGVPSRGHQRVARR
# Assay: TMT10 TAILS N-terminomics, SMC2 experiment (process replicates, trypsin/AspN digest)
# Assay type: cell-based
# Details: log fold change; for logFC.mWT.over.Lux: ADAMTS7 WT over luciferase; for logFC.mWT.over.Luc: SMC2_TAILS HC
# Summary of the method: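 Full-length mouse ADAMTS7 (WT or E373Q mutant, C-terminal 3xFLAG) or luciferase was transduced via adenovirus, 50 MOI, into HCA-SMC (SMC1, SMC2) or HUVEC. SMC1: pooled media, technical triplicates 400 ug; SMC2: process triplicates 300 ug; HUVEC: process triplicates 200 ug, bFGF2 10 ng/ml.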
substance,measurement,value
VASN_138 (HIQPGAFDTLDR; listed as Homo sapiens),logFC.mWT.over.Lux,1.63
HEG1_51 (GLELQLER; listed as Homo sapiens),logFC.mWT.over.Luc,0.90
FN1_2113 (FVTHPGY; listed as Homo sapiens),logFC.mWT.over.Luc,1.38
SERPINH1_27 (AAAPGTAEKLSPKAATLAER; listed as Homo sapiens),logFC.mWT.over.Lux,2.62
